Assay results as given in patent US20250313625A1 (ELPISCIENCE SUZHOU BIOPHARMA, published 2025).

T1: human LAG3 (form used in Octet, Biacore and HDX-MS not given) (human, UniProt P18627 23-450, limits assumed)
T1 sequence (looked up): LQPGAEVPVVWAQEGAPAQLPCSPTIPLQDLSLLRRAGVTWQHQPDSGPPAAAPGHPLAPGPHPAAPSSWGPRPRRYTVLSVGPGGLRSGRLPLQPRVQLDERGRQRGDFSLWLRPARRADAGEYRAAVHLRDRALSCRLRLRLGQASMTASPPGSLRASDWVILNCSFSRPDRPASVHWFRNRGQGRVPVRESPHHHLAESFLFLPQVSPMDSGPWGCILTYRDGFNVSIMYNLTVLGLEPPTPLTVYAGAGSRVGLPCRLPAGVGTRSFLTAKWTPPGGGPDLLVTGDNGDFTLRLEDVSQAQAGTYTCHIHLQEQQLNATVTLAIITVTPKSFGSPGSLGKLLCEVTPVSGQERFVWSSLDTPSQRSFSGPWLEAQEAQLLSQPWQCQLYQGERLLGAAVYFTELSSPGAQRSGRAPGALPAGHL

T2: mFc tagged human LAG3 ECD recombinant protein (human, UniProt P18627 23-450)
T2 construct: extracellular domain; purchased from Biointron; not shown: mouse IgG Fc (mFc) tag
T2 sequence (looked up): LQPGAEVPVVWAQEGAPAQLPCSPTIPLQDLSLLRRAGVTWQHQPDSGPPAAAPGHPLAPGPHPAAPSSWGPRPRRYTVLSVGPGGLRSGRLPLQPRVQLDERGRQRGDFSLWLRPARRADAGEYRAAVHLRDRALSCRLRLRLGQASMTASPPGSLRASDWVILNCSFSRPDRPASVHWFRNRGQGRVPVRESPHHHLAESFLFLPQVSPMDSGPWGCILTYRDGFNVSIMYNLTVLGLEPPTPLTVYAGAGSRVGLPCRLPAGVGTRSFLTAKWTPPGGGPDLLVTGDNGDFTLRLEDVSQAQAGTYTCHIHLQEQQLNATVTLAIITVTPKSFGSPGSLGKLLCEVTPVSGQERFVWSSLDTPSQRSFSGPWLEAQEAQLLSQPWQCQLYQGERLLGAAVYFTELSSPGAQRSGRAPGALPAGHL

T3: human LAG3, full length, stably expressed on cells (human, UniProt P18627 23-525)
T3 construct: whole, on cells; also called CHOK1-human LAG3
T3 sequence (looked up): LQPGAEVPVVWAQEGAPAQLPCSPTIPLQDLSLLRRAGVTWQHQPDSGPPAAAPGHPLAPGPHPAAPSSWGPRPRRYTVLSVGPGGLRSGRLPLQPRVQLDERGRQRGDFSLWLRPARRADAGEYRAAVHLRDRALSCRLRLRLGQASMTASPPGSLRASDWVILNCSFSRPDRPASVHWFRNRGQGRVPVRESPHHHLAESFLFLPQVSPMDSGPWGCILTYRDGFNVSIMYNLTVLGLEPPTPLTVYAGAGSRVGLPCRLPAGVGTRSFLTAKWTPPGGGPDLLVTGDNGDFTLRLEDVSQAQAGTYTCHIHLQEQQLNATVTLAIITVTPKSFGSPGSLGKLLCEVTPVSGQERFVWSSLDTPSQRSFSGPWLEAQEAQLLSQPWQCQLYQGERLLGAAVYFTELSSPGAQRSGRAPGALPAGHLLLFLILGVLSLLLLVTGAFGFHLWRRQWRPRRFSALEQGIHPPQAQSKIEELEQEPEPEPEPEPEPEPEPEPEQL


Legend:
[1] = molecular target: T1, human LAG3 (form used in Octet, Biacore …); assay: BLI (Octet), 1:1 fit
Experimental: (§1) The association and dissociation curves were fit with 1:1 binding model, and the Ka/Kd/KD values for each antibody were calculated.
as §1

[2] = molecular target: T2, mFc tagged human LAG3 ECD recombinant …; assay: competitive FACS: mFc tagged human LAG3 ECD binding to MHC II on Raji cells
Experimental: (§2) Activity of the purified chimeric antibodies to block LAG3 and MHC II interaction was determined by competitive FACS assay. […] After washing, dye labeled anti-mouse Fc 2nd antibody (Sigma) was added and incubated at 37° C. for 1 hour. Fluorescence intensity was detected.

[3] = molecular target: T1, human LAG3 (form used in Octet, Biacore …); assay: BLI (Octet)
[4] = molecular target: T3, human LAG3, full length, stably …; assay: FACS on 293F cells stably expressing human LAG3
Experimental: Briefly the antibodies were incubated with 2×10⁵ target cells at 4° C. for 1 hour. After washing, fluorescence labeled anti-mouse IgG 2nd antibody (Life Technologies) was added and incubated at 4° C. for 1 hour. Geometric median fluorescence intensity (MFI) was detected and EC₅₀ was calculated using GraphPad Prism9.0.
MFI was detected and EC₅₀ was calculated using GraphPad Prism9.0.

[5] = molecular target: T2, mFc tagged human LAG3 ECD recombinant …; assay: competitive FACS: mFc-LAG3 ECD binding to Raji cells (MHC II)
Experimental: as §2

Binder	Kd [3] [pM]	koff [3] [s⁻¹]	kon [3] [M⁻¹ s⁻¹]	also measured
hu029.53 (antibody, V domains shown, humanized from 029c) VH: QVQLVESGGGLVKPGGSLRLSCAASGFTFSSYAMSWIRQAPGKGLEWVAYVTSGGDYIYYADTVKGRFTISRDDAKNSLYLQMNSLRAEDTAMYYCTRVAYDYEWYFDVWGQGALVTVSS VL: DIQMTQSPSSVSASVGDRVTITCKASQDVTTAVAWYQQKPGKAPKLLIYSASYRYTGVPSRFSGSGSGTDFTLTISSLQPEDFATYYCQQHDSSPWTFGQGTKLEIK	–	–	–	Kd [1]: 4940 pM; koff [1]: 0.0217 s⁻¹; kon [1]: 4.38e+06 M⁻¹ s⁻¹; %Blocking at 2 nM [2]: 21.4%; %Blocking at 4 nM [2]: 31.9%; %Blocking at 8 nM [2]: 98%
hu023.05 (antibody, human IgG4, V domains shown, humanized from 023c) VH: QVQLVQSGAEVKKPGASVKVSCKASGYTFTESPMNWVRQAPGQGFEWMGIIYTDTGEPTYAEEFKGRVTMTRDTSTSTVYMELSSLRSEDTAVYFCASDYGSILYWYFDVWGQGTLVTVSS VL: DIQMTQSPSSLSASVGDRVTITCKASQDVSTAVAWYQQKPGKSPKLLIYSASYRYTGVPSRFSGSGSGTDFTFTISSLQPEDFATYYCQQHYNAPPTFGQGTKLEIK	616	0.000198	321000	–
hu029.40 (antibody, V domains shown, humanized from 029c) VH: QVQLVESGGGLVKPGGSLRLSCAASGFTFSSYAMSWVRQAPGKRLEWVAYVTSGGDYIYYADTVKGRFTISRDDAKNSLYLQMNSLRAEDTAMYYCTRVAYDYEWYFDVWGQGALVTVSS VL: DIQMTQSPSSVSTSVGDRVTITCKASQDVTTAVAWYQQKPGKAPKLLIYSASYRYTGVPSRFSGSGSGTDFTFTISSVQPEDFATYYCQQHDSSPWTFGQGTKLEIK	–	–	–	Kd [1]: 4790 pM; koff [1]: 0.0224 s⁻¹; kon [1]: 4.68e+06 M⁻¹ s⁻¹; %Blocking at 2 nM [2]: 19.6%; %Blocking at 4 nM [2]: 43.4%; %Blocking at 8 nM [2]: 99.1%
hu023.08 (antibody, human IgG4, V domains shown, humanized from 023c) VH: QVQLVQSGPEVKKPGASVKVSCKASGYTFTESPMNWVRQAPGQGFEWMGIIYTDTGEPTYAEEFKGRVTMTLDTSTSTVYMELSSLRSEDTAVYFCASDYGSILYWYFDVWGQGTLVTVSS VL: DIQMTQSPSSLSASVGDRVTITCKASQDVSTAVAWYQQKPGKSPKLLIYSASYRYTGVPSRFSGSGSGTDFTFTISSLQPEDFATYYCQQHYNAPPTFGQGTKLEIK	689	0.000219	318000	–
hu023.06 (antibody, human IgG4, V domains shown, humanized from 023c) VH: QVQLVQSGAEVKKPGASVKVSCKASGYTFTESPMNWVRQAPGQGFEWMGIIYTDTGEPTYAEEFKGRVTMTRDTSTSTVYMELSSLRSEDTAVYFCASDYGSILYWYFDVWGQGTLVTVSS VL: DIQMTQSPSSLSTSVGDRVTITCKASQDVSTAVAWYQQKPGKSPKLLIYSASYRYTGVPSRFSGSGSGTDFTFTISSVQPEDFATYYCQQHYNAPPTFGQGTKLEIK	657	0.000161	246000	–
hu023.09 (antibody, human IgG4, V domains shown, humanized from 023c) VH: QVQLVQSGPEVKKPGASVKVSCKASGYTFTESPMNWVRQAPGQGFEWMGIIYTDTGEPTYAEEFKGRVTMTLDTSTSTVYMELSSLRSEDTAVYFCASDYGSILYWYFDVWGQGTLVTVSS VL: DIQMTQSPSSLSTSVGDRVTITCKASQDVSTAVAWYQQKPGKSPKLLIYSASYRYTGVPSRFSGSGSGTDFTFTISSVQPEDFATYYCQQHYNAPPTFGQGTKLEIK	704	0.000204	290000	–
038c (antibody, human IgG4, V domains shown, human IgG4 S228P / kappa chimeric antibody; also called chimeric antibody 038; not shown: human kappa light chain constant region (pcDNA3.4-hIgGk vector)) VH: DVQVQESGPGLVKPSQSLSLTCSVTGYSITSGYYWNWIRQFPGNKLEWMGYISYDGSNEYNLSLKNRLSITRDTSKNQFFLKLNSVTTEDTATYYCAREEDGYYGGMDYWGQGTSVTVSS VL: DIVMTQSHKFMSASVGVRVSITCRASQDVDTAVAWYQQKPGQSPKLLIYWASTRHTGVPDRFTGSGSGTDFTLTISNVQSEDLADYFCQQYSSYPYTFGGGTKLEIK	–	–	–	EC50 [4]: 2300 pM; IC50 [5]: 5200 pM; TOP blocking (%) [5]: 98.4%

The next lines start with results.

Kd [3] [pM]	koff [3] [s⁻¹]	kon [3] [M⁻¹ s⁻¹]	Binder	also measured
189	5.58e-05	296000	hu023.12 (antibody, human IgG4, V domains shown, humanized from 023c) VH: QVQLVQSGPELKKPGASVKVSCKASGYTFTESPMNWVRQAPGQGFEWMGIIYTDTGEPTYAEEFKGRFVFSLDTSVSTAYLQISSLKAEDTAVYFCVSDYGSILYWYFDVWGQGTLVTVSS VL: DIQMTQSPSSLSTSVGDRVTITCKASQDVSTAVAWYQQKPGKSPKLLIYSASYRYTGVPSRFSGSGSGTDFTFTISSVQPEDFATYYCQQHYNAPPTFGQGTKLEIK	–
240	7.72e-05	322000	hu023.14 (antibody, human IgG4, V domains shown, humanized from 023c) VH: QIQLVQSGPELKKPGASVKISCKASGYTFTESPMNWVRQAPGQGFEWMGIIYTDTGEPTYAEEFKGRFVFSLDTSVSTAYLQISSLKAEDTAVYFCVSDYGSILYWYFDVWGQGTLVTVSS VL: DIQMTQSPSSLSASVGDRVTITCKASQDVSTAVAWYQQKPGKSPKLLIYSASYRYTGVPSRFSGSGSGTDFTFTISSLQPEDFATYYCQQHYNAPPTFGQGTKLEIK	–
